In patent publication US20240293570A1 (priority 2021, published 2024):
Like-named read-outs stand apart in the source and are kept apart here.

What was measured:
[1] = format: physicochemical; conditions: ADC with Her2 antibody, RP-HPLC-MS
Method: (§1) A drug-antibody conjugating ratio (also known as drug-antibody ratio, abbreviated as DAR) of the antibody-drug conjugate was tested using reversed-phase high-performance liquid chromatography-mass chromatography (RP-HPLC-MS). The ADC sample was diluted with 50 mmol/L Tris buffer (pH 8.0) to 1 mg/ml. A fresh dithiothreitol (DTT) stock solution was added to achieve a final DTT concentration of 50 mmol/L. Incubation was performed at 37° C. for 30 minutes. A PLRP-S chromatographic column (1000 Å pores, 2.1×50 mm, 5) μm) was used, and the column temperature was 70° C. The flow rate was 0.25 mL/min. […] of sample was injected; the mobile phase A was an aqueous solution of 0.1% formic acid (V/V) and 0.025% trifluoroacetic acid (V/V), and the mobile phase B was an acetonitrile solution of 0.1% formic acid (V/V) and 0.025% trifluoroacetic acid (V/V); the running time was 0-3 minutes, where 27% of mobile phase B ran for 3 minutes, and the mobile phase B ran from 27% to 49% within 3-25 minutes, from 49% to 95% within 25-26 minutes, at 95% within […], from 95% to 27% within 30-31.5 minutes, and at 27% for 31.5-45 minutes. […] Mass spectrometry drying gas was at a temperature of 350° C. and a flow rate of 7.0 L/min, the pressure of an atomizer was 40 psi, capillary voltage was positive 3000V and negative 3000V, and the mass range was 500-1600 m/z. The molecular weight of each mass spectrometry peak (ranging from 20000 to 70000) was calculated by deconvolution and compared with light and heavy chain molecular weights of un-conjugated antibodies to calculate a drug load at each peak, so as to determine the load of a corresponding ultraviolet peak. Area percentages of heavy and light chain ultraviolet peaks were calculated through integration, and a weighted average DAR of the antibody-drug conjugate was calculated by combining the area percentages with the drug load distribution of each peak.

[2] = Naked antibody content of antibody-drug conjugates by hydrophobic interaction chromatography (HIC); format: physicochemical; conditions: ADC with Her2 antibody
Method: The content of naked antibodies in the antibody-drug conjugate was tested using hydrophobic interaction chromatography (HIC). A Biocore HIC-Butyl chromatographic column (4.6×150 mm, 5 μm) was used. The mobile phase A was a 100 mM phosphate aqueous solution containing 2 M ammonium sulfate (pH 7.0), and the mobile phase B was a 100 mM phosphate aqueous solution (pH 7.0): isopropanol=80:20 (V/V). Samples of 50 μg and 10 μl were injected. The mobile phase A at the flow rate of 1 mL/min ran at 100% for 3 minutes. Within 3-25 minutes, the mobile phase B ran from […] to 100%, while the mobile phase B decreased to 0% at 25.1 and ran to 30 minutes. […] The naked antibody content of the antibody-drug conjugate was calculated using an area normalization method based on the retention time of a naked antibody peak located by the antibody of the antibody-drug conjugate.

[3] = Polymer (high molecular component) content of antibody-drug conjugates by SE-HPLC; format: physicochemical; conditions: ADC with Her2 antibody
Method: (§2) Polymers (high molecular components) of the antibody-drug conjugates were tested using molecular exclusion high-performance liquid chromatography (SE-HPLC). A Biocore SEC chromatographic column (7.8×300 mm, […]) was used, and the mobile phase was 50 mM phosphate containing 300 mM sodium chloride (pH 6.8), with a flow rate of 0.5 mL/min. Samples of […] and 10 μl were injected. […] The polymer content of an antibody-drug conjugate was calculated using an area normalization method.

[4] = Stability (placement) test of ADCs at 40° C. in dark for 14 days, DAR and polymer content; format: physicochemical
Method: as §2, §1
Stability testing method: The stability of the obtained ADCs was tested for 14 days. The ADCs were placed at 40° C. in dark. Sampling points were days 0, 7, and 14. The polymer content and DAR value of samples at different sampling points were tested according to the method in Experimental Example 1.

| SMILES | DAR [1] | Naked antibody content (%) [2] | Polymer content (%) [3] | DAR ([4]; Day 0, 40° C. in dark) | Polymer content (%) ([4]; Day 0, 40° C. in dark) | DAR ([4]; Day 7, 40° C. in dark) | Polymer content (%) ([4]; Day 7, 40° C. in dark) | DAR ([4]; Day 14, 40° C. in dark) | Polymer content (%) ([4]; Day 14, 40° C. in dark) |
| --- | --- | --- | --- | --- | --- | --- | --- | --- | --- |
| C=C1C[C@@H]2CC[C@@]34C[C@H]5OC6C(O[C@H]7CC[C@H](CC(=O)C[C@@H]8[C@@H](OC)[C@@H](C[C@H](O)CNC(=O)CNC(=O)[C@H](Cc9ccccc9)NC(=O)CNC(=O)CNC(=O)CCOCCOCCN(CCOCCOCCC(=O)NCC(=O)NCC(=O)N[C@@H](Cc9ccccc9)C(=O)NCC(=O)NCOCC(=O)N[C@H]9CCc%10c(C)c(F)cc%11nc%12c(c9c%10%11)Cn9c-%12cc%10c(c9=O)COC(=O)[C@]%10(O)CC)C9CCC(NC(=O)CCCCCN%10C(=O)C=CC%10=O)CC9)O[C@H]8C[C@H]8O[C@@H](CC[C@@H]1O2)C[C@@H](C)C8=C)O[C@@H]7[C@@H]6O3)[C@H]5O4 (stereo partly drawn) [Comparative Example 9, reference compound] | 0.91 | 57.78% | 70.65% | – | – | – | – | – | – |
| C=C1C[C@@H]2CC[C@@]34C[C@H]5OC6C(O[C@H]7CC[C@H](CC(=O)C[C@@H]8[C@@H](OC)[C@@H](C[C@H](O)CNC(=O)CNC(=O)[C@H](Cc9ccccc9)NC(=O)CNC(=O)CNC(=O)CCN9C(=O)C=CC9=O)O[C@H]8C[C@H]8O[C@@H](CC[C@@H]1O2)C[C@@H](C)C8=C)O[C@@H]7[C@@H]6O3)[C@H]5O4 [Comparative Example 12, reference compound] | 2.67 | 7.00% | 13.18% | – | – | – | – | – | – |
| C=C1C[C@@H]2CC[C@@]34C[C@H]5OC6C(O[C@H]7CC[C@H](CC(=O)C[C@@H]8[C@@H](OC)[C@@H](C[C@H](O)CNC(=O)CNC(=O)[C@H](Cc9ccccc9)NC(=O)CNC(=O)CNC(=O)CCOCCOCCN(CCOCCOCCC(=O)NCC(=O)NCC(=O)N[C@@H](Cc9ccccc9)C(=O)NCC(=O)NCOCC(=O)N[C@H]9CCc%10c(C)c(F)cc%11nc%12c(c9c%10%11)Cn9c-%12cc%10c(c9=O)COC(=O)[C@]%10(O)CC)C9CCC(C(=O)CCOCCOCCN%10C(=O)C=CC%10=O)CC9)O[C@H]8C[C@H]8O[C@@H](CC[C@@H]1O2)C[C@@H](C)C8=C)O[C@@H]7[C@@H]6O3)[C@H]5O4 (stereo partly drawn) [Comparative Example 13, reference compound] | 1.01 | 60.37% | 78.50% | – | – | – | – | – | – |
| C=C1C[C@@H]2CC[C@@]34C[C@H]5OC6C(O[C@H]7CC[C@H](CC(=O)C[C@@H]8[C@@H](OC)[C@@H](C[C@H](O)CNC(=O)CNC(=O)[C@H](Cc9ccccc9)NC(=O)CNC(=O)CNC(=O)CCOCCOCCN(CCOCCOCCC(=O)NCC(=O)NCC(=O)N[C@@H](Cc9ccccc9)C(=O)NCC(=O)NCOCC(=O)N[C@H]9CCc%10c(C)c(F)cc%11nc%12c(c9c%10%11)Cn9c-%12cc%10c(c9=O)COC(=O)[C@]%10(O)CC)C(=O)CN9CCOCCOCCOCCOCCN(C(=O)CCCCCC%10C(=O)C=CC%10=O)CCOCCOCCOCCOCC9)O[C@H]8C[C@H]8O[C@@H](CC[C@@H]1O2)C[C@@H](C)C8=C)O[C@@H]7[C@@H]6O3)[C@H]5O4 [Example 14] | 3.82 | 4.97% | 0.59% | 3.82 | 0.59% | 3.83 | 0.63% | 3.84 | 0.72% |
| C=C1C[C@@H]2CC[C@@]34C[C@H]5OC6C(O[C@H]7CC[C@H](CC(=O)C[C@@H]8[C@@H](OC)[C@@H](C[C@H](O)CNC(=O)CNC(=O)[C@H](Cc9ccccc9)NC(=O)CNC(=O)CNC(=O)CCOCCOCCN(CCOCCOCCC(=O)NCC(=O)NCC(=O)N[C@@H](Cc9ccccc9)C(=O)NCC(=O)NCOCC(=O)N[C@H]9CCc%10c(C)c(F)cc%11nc%12c(c9c%10%11)Cn9c-%12cc%10c(c9=O)COC(=O)[C@]%10(O)CC)C(=O)CN9CCOCCOCCOCCOCCN(C(=O)CCOCCOCCOCCOCCOCCOCCOCCOCCN%10C(=O)C=CC%10=O)CCOCCOCCOCCOCC9)O[C@H]8C[C@H]8O[C@@H](CC[C@@H]1O2)C[C@@H](C)C8=C)O[C@@H]7[C@@H]6O3)[C@H]5O4 [Example 15] | 4.07 | 3.63% | 1.20% | 4.07 | 1.20% | 4.07 | 1.21% | 4.11 | 1.27% |
| C=C1C[C@@H]2CC[C@@]34C[C@H]5OC6C(O[C@H]7CC[C@H](CC(=O)C[C@@H]8[C@@H](OC)[C@@H](C[C@H](O)CNC(=O)CNC(=O)[C@H](Cc9ccccc9)NC(=O)CNC(=O)CNC(=O)CCOCCOCCN(CCOCCOCCC(=O)NCC(=O)NCC(=O)N[C@@H](Cc9ccccc9)C(=O)NCC(=O)NCOCC(=O)N[C@H]9CCc%10c(C)c(F)cc%11nc%12c(c9c%10%11)Cn9c-%12cc%10c(c9=O)COC(=O)[C@]%10(O)CC)C9CCC(NC(=O)CN%10CCOCCOCCOCCN(C(=O)CCCCCN%11C(=O)C=CC%11=O)CCOCCOCCOCC%10)CC9)O[C@H]8C[C@H]8O[C@@H](CC[C@@H]1O2)C[C@@H](C)C8=C)O[C@@H]7[C@@H]6O3)[C@H]5O4 (stereo partly drawn) [Example 19] | 3.92 | 5.22% | 1.53% | 3.92 | 1.53% | 3.91 | 1.56% | 3.87 | 1.49% |
| C=C1C[C@@H]2CC[C@@]34C[C@H]5OC6C(O[C@H]7CC[C@H](CC(=O)C[C@@H]8[C@@H](OC)[C@@H](C[C@H](O)CNC(=O)CNC(=O)[C@H](Cc9ccccc9)NC(=O)CNC(=O)CNC(=O)CCOCCOCCN(CCOCCOCCC(=O)NCC(=O)NCC(=O)N[C@@H](Cc9ccccc9)C(=O)NCC(=O)NCOCC(=O)N[C@H]9CCc%10c(C)c(F)cc%11nc%12c(c9c%10%11)Cn9c-%12cc%10c(c9=O)COC(=O)[C@]%10(O)CC)C9CCC(NC(=O)CN%10CCOCCOCCOCCN(C(=O)CCOCCOCCOCCOCCN%11C(=O)C=CC%11=O)CCOCCOCCOCC%10)CC9)O[C@H]8C[C@H]8O[C@@H](CC[C@@H]1O2)C[C@@H](C)C8=C)O[C@@H]7[C@@H]6O3)[C@H]5O4 (stereo partly drawn) [Example 20] | 3.85 | 4.23% | 1.48% | 3.85 | 1.48% | 3.87 | 1.50% | 3.89 | 1.43% |
| C=C1C[C@@H]2CC[C@@]34C[C@H]5OC6C(O[C@H]7CC[C@H](CC(=O)C[C@@H]8[C@@H](OC)[C@@H](C[C@H](O)CNC(=O)CNC(=O)[C@H](Cc9ccccc9)NC(=O)CNC(=O)CNC(=O)CN9CCOCCN(C(=O)CCN%10C(=O)C=CC%10=O)CCOCC9)O[C@H]8C[C@H]8O[C@@H](CC[C@@H]1O2)C[C@@H](C)C8=C)O[C@@H]7[C@@H]6O3)[C@H]5O4 [Example 21] | 4.08 | 2.56% | 0.87% | 4.08 | 0.87% | 4.06 | 0.90% | 4.10 | 0.88% |
